Broadly, the Kd is the free concentration of one partner at which half of the binding sites on the other are occupied at equilibrium, for simple one-to-one binding. High values mean a looser complex, low ones a tighter complex.

Two substances from article PMC5469476 can be followed below.

Assay [1] deals with human glucagon-like peptide-1 receptor (GLP1R) with C-terminal 1D4 epitope, purified in nanodiscs (GLP1R-ND) (human) (UniProt P43220). In words: fluorescence polarisation. (In general: Polarisation of emitted light reports the rotation of a fluorescent probe.)
Sequence of UniProt P43220 (P43220 24-463): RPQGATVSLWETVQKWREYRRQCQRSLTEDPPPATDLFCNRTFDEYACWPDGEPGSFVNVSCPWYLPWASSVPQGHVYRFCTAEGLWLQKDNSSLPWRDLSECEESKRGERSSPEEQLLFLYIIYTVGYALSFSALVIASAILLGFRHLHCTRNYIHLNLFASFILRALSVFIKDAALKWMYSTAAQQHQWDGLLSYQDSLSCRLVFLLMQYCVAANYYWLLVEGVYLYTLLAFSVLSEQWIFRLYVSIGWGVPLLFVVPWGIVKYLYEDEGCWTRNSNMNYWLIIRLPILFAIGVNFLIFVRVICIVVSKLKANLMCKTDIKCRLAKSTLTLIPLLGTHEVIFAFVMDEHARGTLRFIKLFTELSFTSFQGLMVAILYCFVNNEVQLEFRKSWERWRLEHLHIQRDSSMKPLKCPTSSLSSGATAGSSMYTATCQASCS
Assay [2] shares this target.
Assay [3] has the same target. In words: fluorescence polarisation; fluorescence anisotropy; 50 nM FAM-labeled peptide with 0 to 400 nM freshly prepared GLP1R-ND (or empty-ND); 20 mM Tris-HCl pH 7.4, 150 mM NaCl, EDTA, 3 mM MgCl2; room temperature; single-site binding model; three independent receptor preparations.

“FAM-labeled exendin-4 (L21K, 5(6)-carboxyfluorescein on the lysine) (peptide)” had a Kd in assay [1] of 178 nM.

“FAM-labeled GLP-1-(7-37) (E21K, 5(6)-carboxyfluorescein on the lysine) (peptide)” returned an EC50 of cell-based cAMP assay (receptor on cells, details in S1 Supporting Information) in assay [2] of 1.18 nM. This substance also had a dissociation constant Kd in assay [3] of 284 nM.
